In assay [1] the target is recombinant human OX40 fused to a His-tag (Acro Biosystems, cat. no. OX0-H5224) (human) (UniProt P43489). Description: BLI cross-block; first Ab (competitor): IgG1-CD134-003.
For assay [2] the target is unchanged. Description: BLI cross-block; first Ab (competitor): IgG1-CD134-007.
Assay [3] shares this target. Description: BLI cross-block; first Ab (competitor): IgG1-CD134-012.
For assay [4] the target is unchanged. The experiment in a line: BLI cross-block; first Ab (competitor): IgG1-CD134-SF2.
For assay [5] the target is unchanged. The experiment in a line: BLI cross-block; first Ab (competitor): IgG1-CD134-11D4.
Assay [6] has the same target. Description: BLI cross-block; first Ab (competitor): IgG1-CD134-h3C8.
For assay [7] the target is unchanged. The experiment in a line: BLI cross-block; first Ab (competitor): IgG1-CD134-A4453.
Assay [8] shares this target. The experiment in a line: BLI cross-block; first Ab (competitor): IgG1-CD134-Hu106.
Assay [9] has the same target. The experiment in a line: BLI cross-block; first Ab (competitor): IgG1-CD134-GBR830.
For assay [10] the target is unchanged. Description: BLI cross-block; first Ab (competitor): IgG1-CD134-IBI101.
The target is the same in assay [11]. The experiment in a line: BLI cross-block; first Ab (competitor): IgG1-CD134-RG7888.
The target is the same in assay [12]. The experiment in a line: BLI cross-block; first Ab (competitor): IgG1-CD134-ABBV368.
The target is the same in assay [13]. The experiment in a line: BLI cross-block; first Ab (competitor): IgG1-CD134-49B4-RRE.
Assay [14] shares this target. The experiment in a line: BLI cross-block; first Ab (competitor): IgG1-CD134-MEDI0562.
Assay [15] has the same target. Description: BLI cross-block; first Ab (competitor): IgG1-CD134-INCAGN1949.
In assay [16] the target is human OX40 with mouse CRD1 (human with mouse CRD1) (UniProt P43489). Description: flow cytometry, transfected ExpiCHO-S cells, gMFI (PE).
The target of assay [17] is recombinant human OX40 fused to a His-tag (Acro Biosystems, cat. no. OX0-H5224) (human) (UniProt P43489). The experiment in a line: BLI cross-block; first Ab (competitor): IgG1-CD134-003-HC6LC2-RR.

Sequence of recombinant human OX40 fused to a His-tag (Acro Biosystems, cat. no. OX0-H5224) (human) (P43489 29-214 limits assumed): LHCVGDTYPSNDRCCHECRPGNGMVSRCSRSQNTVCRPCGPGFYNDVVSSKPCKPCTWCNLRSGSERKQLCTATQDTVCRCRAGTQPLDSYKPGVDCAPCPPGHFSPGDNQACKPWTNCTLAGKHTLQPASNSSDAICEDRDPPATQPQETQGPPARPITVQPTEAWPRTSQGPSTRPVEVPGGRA
Sequence of IgG1-CD134-IBI101 (antibody) (VH): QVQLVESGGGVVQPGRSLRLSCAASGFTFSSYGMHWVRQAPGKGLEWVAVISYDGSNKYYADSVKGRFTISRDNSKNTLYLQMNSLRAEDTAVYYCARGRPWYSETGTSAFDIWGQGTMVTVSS
Sequence of IgG1-CD134-IBI101 (antibody) (VL): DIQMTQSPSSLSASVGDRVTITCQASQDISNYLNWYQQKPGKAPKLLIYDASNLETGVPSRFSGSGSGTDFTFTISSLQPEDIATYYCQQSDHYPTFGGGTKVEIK
Sequence of human OX40 with mouse CRD1 (human with mouse CRD1) (P43489 other isoform, or with tags, fused parts or gaps limits assumed): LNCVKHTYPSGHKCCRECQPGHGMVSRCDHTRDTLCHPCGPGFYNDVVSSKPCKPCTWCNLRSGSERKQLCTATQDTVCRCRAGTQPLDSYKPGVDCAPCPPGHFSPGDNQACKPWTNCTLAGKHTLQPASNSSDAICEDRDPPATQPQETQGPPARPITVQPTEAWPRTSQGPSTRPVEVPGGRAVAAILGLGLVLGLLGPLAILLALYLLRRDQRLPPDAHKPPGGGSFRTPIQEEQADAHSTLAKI

As for IgG1-CD134-IBI101 (antibody), the association response in [1] is 0.74 nm; in assay [2] it was 0.02 nm; in [3], 0.82 nm; in assay [4] it was 0.07 nm; in assay [5], 0.15 nm; in [6], -0.03 nm. Moreover, the association response in assay [7] was 0.24 nm; in assay [8] it was -0.02 nm; in assay [9], 0.01 nm; in assay [10] it was 0.01 nm; in assay [11], 0.31 nm; in assay [12], -0.02 nm. Moreover, the association response stood at 0 nm in [13], 0.26 nm in assay [14], 0.02 nm in [15] and 1.23 nm in [17]. Besides, the EC50 (read off the curve) (in general, the concentration at which the effect is half-maximal) in assay [16] amounted to 0.07 mg/L.
Turning to IgG1-CD134-INCAGN1949 (antibody), the association response in assay [1] is 1.39 nm; in [2], 0.55 nm; in assay [3], 0.73 nm; in assay [4], 0.02 nm; in [5] it was 0.11 nm; in assay [6] it was -0.02 nm. Besides, the association response is 0.25 nm in assay [7]; -0.01 nm in assay [8]; 0.01 nm in assay [9]; 0.01 nm in assay [10]; 0.01 nm in [11]; -0.03 nm in assay [12]. The association response was found to be 0 nm in [13], 0.01 nm in assay [14], 0 nm in [15] and 1.74 nm in [17]. For the same substance, the EC50 (read off the curve) in assay [16] was 0.09 mg/L.
